The record followed here is article PMC2766623, “The Vitamin B1 Metabolism of Staphylococcus aureus Is Controlled at Enzymatic and Transcriptional Levels” (PLoS ONE, 2009).

Series [1] concerns the target S. aureus 5-(2-hydroxyethyl)-4-methylthiazole (THZ) kinase (SaThiM) (Staphylococcus aureus ATCC25923). The series is described as follows: SEC-MALS; Superdex 200 10/30 size exclusion column followed by static light scattering (miniDAWN Tristar); 100 mM Tris-HCl buffer, pH 8, 150 mM NaCl; affinity purified proteins. In general terms: In gel filtration, larger molecules generally elute earlier.

In series [2] the target is T1, SaGTPase (Staphylococcus aureus, UniProt P67682).
T1 construct: gene rsgA; monomer; gtpase-epi-tpk operon
T1 sequence (P67682 1-291): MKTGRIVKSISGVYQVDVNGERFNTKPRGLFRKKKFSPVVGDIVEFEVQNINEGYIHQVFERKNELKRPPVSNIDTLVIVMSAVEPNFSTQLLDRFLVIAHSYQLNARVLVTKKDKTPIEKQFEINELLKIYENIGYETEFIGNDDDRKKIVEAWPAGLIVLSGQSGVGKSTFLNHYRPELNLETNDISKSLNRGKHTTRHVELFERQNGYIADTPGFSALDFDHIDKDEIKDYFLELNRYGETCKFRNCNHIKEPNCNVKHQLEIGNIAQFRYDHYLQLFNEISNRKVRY
The experiment in a line: phosphate release, malachite green. It is filed as biochemical. The following applies: 1 mM substrate, 1 mM MgCl2, 100 mM MOPS pH 7.5, 37°C.

The target in series [3] is S. aureus 4-amino-5-hydroxymethyl-2-methylpyrimidine (HMP) kinase (SaThiD) (Staphylococcus aureus ATCC25923). The experiment in a line: SEC-MALS; Superdex 200 10/30 size exclusion column followed by static light scattering (miniDAWN Tristar); 100 mM Tris-HCl buffer, pH 8, 150 mM NaCl; affinity purified proteins.
Series [4] concerns the target S. aureus thiaminase type II (SaTenA) (Staphylococcus aureus ATCC25923). Described as above.
Substrate in series [5]: Cc1ncc(C[n+]2csc(CCO)c2C)c(N)n1
The experiment in a line: purified protein. It is filed as biochemical, Staphylococcus aureus. Particulars: 2 mM ATP, 4 mM MnCl2, 100 mM Tris-HCl pH 8.5, 37°C.

Substrate in series [6]: Cc1ncc(C[n+]2csc(CCO)c2C)c(N)n1
The experiment in a line: thiamine hydrolysis, products HMP/THZ measured by radiometric kinase assay, TLC, Lineweaver-Burk. It counts as biochemical, Staphylococcus aureus. The following applies: 100 mM Tris-HCl pH 7.5, 37°C, no nucleophile needed. The source says:
thiamine hydrolysis, products HMP/THZ measured by radiometric kinase assay, TLC, Lineweaver-Burk on SaTenA

Substrate in series [7]: Cc1ncc(COP(=O)(O)OP(=O)(O)O)c(N)n1
The series is described as follows: purified protein. Particulars: co-substrate THZ-[33P] (THZ phosphate), 37°C. It is filed as biochemical, Staphylococcus aureus.

Substrate in series [8]: Cc1ncc(CO)c(N)n1
The series is described as follows: radiometric [gamma-33P]-ATP phosphorylation, TLC, Lineweaver-Burk. It counts as biochemical, Staphylococcus aureus. Particulars: 1 mM ATP, 2 mM MgCl2, 100 mM potassium phosphate pH 7.5, 37°C. The text has this: radiometric [gamma-33P]-ATP phosphorylation, TLC, Lineweaver-Burk on SaThiD

For the molecule “S. aureus 5-(2-hydroxyethyl)-4-methylthiazole (THZ) kinase (SaThiM) (enzyme)”, the stoichiometry N in series [1] amounted to 2. As for `Nc1nc2c(ncn2[C@@H]2O[C@H](COP(=O)(O)OP(=O)(O)OP(=O)(O)O)[C@@H](O)[C@H]2O)c(=O)[nH]1` [GTP], in series [2], the “phosphate release, malachite green” value was “the S. aureus GTPase is not restricted to GTP and exhibits a broad substrate spectrum”. For “S. aureus 4-amino-5-hydroxymethyl-2-methylpyrimidine (HMP) kinase (SaThiD) (enzyme)”, the stoichiometry N in series [3] turned out to be 2. In turn, “S. aureus thiaminase type II (SaTenA) (enzyme)” showed a stoichiometry N in series [4] of 3.

B1: SaTPK (Staphylococcus aureus subsp. aureus NCTC 8325) (protein)
chain: MHINLLCSDRHLPQDIWAKSNEGKWGGVDRGALILLKHQIIPFFSVGDFDSVSKEERQLLTEQLQIKPVQAEKADTDLALAVDKAVALGFDSITIYGATGGRLDHFFGAIQLLLKKAYYKHDVHIEVIDQQNKIELLPKGQHTVEKDKSYPYISFIPMTDDVELSLAGFKYNLARQMLNIGSTLTISNEIESLQAKVTVHDGLILQIRSTDLN
notes: monomer; gtpase-epi-tpk operon
Take B1: in series [5], the Michaelis constant (Km) came out at 394 ± 74 µM and the turnover number (kcat) came out at 0.5 ± 0.07 min⁻¹.

B2: SaTenA (Staphylococcus aureus subsp. aureus NCTC 8325) (protein)
chain: MEFSQKLYQAAKPIINDIYEDDFIQKMLSGDIGADALRHYLKADAAYLKEFTNLYALLIPKMNSMNDVKFLVEQIEFMVEGEVLAHDILAQIVGESYEEIIKTKVWPPSGDHYIKHMYFQAHSRENAIYTIAAMAPCPYIYAELAKRSQSDHKLNREKDTAKWFDFYSTEMDDIINVFEAIMNKLAESMSDKELEQVKQVFLESCIHERRFFNMAMTLEQWEFGGKVND
notes: trimer by SLS
As for B2, in series [6], the Michaelis constant (Km) was 256 ± 44 µM and the turnover number (kcat) was 0.1 ± 0.02 min⁻¹.

B3: SaThiE (Staphylococcus aureus subsp. aureus NCTC 8325) (protein)
chain: MFNQSYLNVYFICGTSDVPSHRTIHEVLEAALKAGITLFQFREKGESALKGNDKLVLAKELQHLCHQYDVPFIVNDDVSLAKEINADGIHVGQDDAKVKEIAQYFTDKIIGLSISDLDEYAKSDLTHVDYIGVGPIYPTPSKHDAHIPVGPEMIATFKEMNPQLPIVAIGGINTNNVAPIVEAGANGISVISAISKSENIEKTVNRFKDFFNN
notes: low yield, three bands on SDS-PAGE
For B3, the Km in series [7] was 145 ± 36 µM.

B4: SaThiD (Staphylococcus aureus subsp. aureus N315) (protein)
chain: MIKPKIALTIAGTDPTGGAGVMADLKSFHSCGVYGMGVVTSIVAQNTLGVQHIHNLNHQWVDEQLDSVFNDTLPHAIKTGMIATADTMETIRHYLMQHESIPYVIDPVMLAKSGDSLMDNDTKQNLQHTLLPLADVVTPNLPEAEEITGLTIDSEEKIMQAGRIFINEIGSKGIIIKGGHSNDTDIAKDYLFTNEGVQTFENERFKTKHTHGTGCTFSAVITAELAKGRPLFEAVHKAKKFISMSIQYTPEIGRGRGPVNHFAYLKKEGLDDELSK
notes: dimer; 831 bp ORF in tenA-thiM-thiD-thiE operon
Consider B4, for which, in series [8], the Michaelis-Menten constant (Km) was determined as 635 ± 20 µM and the kcat is 0.7 ± 0.05 min⁻¹.

What is called stoichiometry N is a count of units in the complex or per binding partner. Broadly, the Km is the concentration of substrate that gives half-maximal velocity. By kcat is commonly meant the number of substrate molecules converted per active site and unit of time at saturation.
